According to the supplement of paper PMC7125110:
± gives the standard error. For some assays here: Fewer inactive variants are shown than the library holds.

B1: glmS ribozyme (parent)
chain: AUAAAAGCGCCAGAACUACAGAAAUGUAGUUGACGAGGAGGAGGUUUAUCGAAUUUUCGGCGGAUGCCUCCAAA

What was measured:
Settings in all cases: with glucosamine-6-phosphate
[1] = variants of: B1; experiment: kcat; higher = faster cleavage; RNA array
Procedure, shortened: (§1)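 kcat and KM were obtained from weighted Michaelis–Menten fits across concentrations of kobs values. Those came from one- or two-exponential decay fits to per-tile medians normalised to baseline and to non-cleaving reference variants. The variants were barcoded ribozymes transcribed in situ by E. coli RNA polymerase on sequenced MiSeq chips and tracked through a hybridised Cy3 probe at 37 °C, with 40 μM to 10 mM glucosamine-6-phosphate in HEPES/KCl/Mg(OAc)2 buffer flowed in.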

[2] = variants of: B1; experiment: self-cleavage kobs at 2500 uM GlcN6P; higher = faster cleavage; RNA array
Procedure, shortened: as §1

[3] = variants of: B1; experiment: KM; higher = weaker cofactor use; RNA array
Procedure, shortened: as §1

[4] = variants of: B1; experiment: self-cleavage kobs at 160 uM GlcN6P; higher = faster cleavage; RNA array
Procedure, shortened: as §1

[5] = variants of: B1; experiment: self-cleavage kobs at 640 uM GlcN6P; higher = faster cleavage; RNA array
Procedure, shortened: as §1

[6] = variants of: B1; experiment: self-cleavage kobs at 10000 uM GlcN6P; higher = faster cleavage; RNA array
Procedure, shortened: as §1

[7] = variants of: B1; experiment: self-cleavage kobs at 40 uM GlcN6P; higher = faster cleavage; RNA array
Procedure, shortened: as §1

Variant | kcat [1] [s⁻¹] | self-cleavage kobs at 2500 uM GlcN6P [2] [s⁻¹] | KM [3] [µM] | self-cleavage kobs at 160 uM GlcN6P [4] [s⁻¹] | self-cleavage kobs at 640 uM GlcN6P [5] [s⁻¹] | self-cleavage kobs at 10000 uM GlcN6P [6] [s⁻¹] | self-cleavage kobs at 40 uM GlcN6P [7] [s⁻¹]
A14C G29U G37U G38A C70A | 5.57e-05 ± 2e-05 | 6.04e-05 ± 2.4e-05 | – | – | – | – | –
A14U A64U G66C | 1.84e-05 ± 4.5e-06 | – | – | – | – | – | –
A14C C70G | 0.00014 ± 1.4e-05 | 9.83e-05 ± 1.1e-05 | 866 ± 250 | 3.24e-05 ± 1.3e-05 | 5.83e-05 ± 7.3e-06 | 0.000134 ± 1.3e-05 | –
A14U C50G C68A | 7.35e-05 ± 2e-05 | 7.66e-05 ± 2.9e-05 | – | – | 0.000122 ± 2.5e-05 | 5.56e-05 ± 1.5e-05 | 5.1e-05 ± 1.3e-05
A14C U54C | 0.00767 ± 0.0019 | 0.00305 ± 0.00048 | 3550 ± 1100 | 0.000296 ± 4.4e-05 | 0.000989 ± 0.00014 | 0.00592 ± 0.00066 | 0.000111 ± 1.2e-05
A14C G41A | 0.000497 ± 9e-05 | 0.000234 ± 4.5e-05 | 3490 ± 1000 | 3.59e-05 ± 1.5e-05 | 6.95e-05 ± 1.3e-05 | 0.000358 ± 6.2e-05 | –
A14G U45A | 0.077 ± 0.015 | 0.0452 ± 0.016 | 1340 ± 310 | 0.00764 ± 0.0014 | 0.0331 ± 0.0099 | 0.0701 ± 0.026 | 0.00233 ± 0.00047
A14C A36C | < 1e-05 | – | – | < 1e-05 | – | – | < 1e-05
A14G A39U | 0.0511 ± 0.013 | 0.0365 ± 0.014 | 1450 ± 480 | 0.00416 ± 0.0013 | 0.0183 ± 0.0062 | 0.0395 ± 0.019 | 0.00167 ± 0.00051
G13U C68U | 0.000114 ± 6.9e-06 | 7.37e-05 ± 8.5e-06 | 1630 ± 310 | – | 2.76e-05 ± 8.2e-06 | 9.63e-05 ± 8.5e-06 | –
G13U U54G C70G | 4.42e-05 ± 4.5e-06 | 4.17e-05 ± 1.2e-05 | – | – | 5.17e-05 ± 2.4e-05 | 4.21e-05 ± 1.5e-05 | –
A14G G44U | 0.00141 ± 0.00018 | 0.000558 ± 0.0001 | 4650 ± 840 | 4.99e-05 ± 2e-05 | 0.000163 ± 2.5e-05 | 0.000923 ± 0.00019 | –
G13C A42C | < 1e-05 | – | – | – | – | < 1e-05 | < 1e-05
G13C C16G | 0.000162 ± 5.6e-05 | 4.43e-05 ± 1.5e-05 | – | – | 4.75e-05 ± 2.1e-05 | 0.000108 ± 1.6e-05 | –
G13U G29C | 0.000126 ± 2.5e-05 | 0.00015 ± 2.3e-05 | – | – | 4.72e-05 ± 1.7e-05 | 0.000107 ± 1.4e-05 | –
A14C G44A | 0.000834 ± 0.00022 | – | – | – | – | 4.02e-05 ± 1.1e-05 | < 1e-05

Variant | kcat [1] [s⁻¹] | self-cleavage kobs at 2500 uM GlcN6P [2] [s⁻¹] | KM [3] [µM] | self-cleavage kobs at 160 uM GlcN6P [4] [s⁻¹] | self-cleavage kobs at 640 uM GlcN6P [5] [s⁻¹] | self-cleavage kobs at 10000 uM GlcN6P [6] [s⁻¹] | self-cleavage kobs at 40 uM GlcN6P [7] [s⁻¹]
A14C U45A | 0.00955 ± 0.0035 | 0.00469 ± 0.00097 | – | 0.000909 ± 0.00039 | 0.00207 ± 0.00049 | 0.0131 ± 0.0028 | 0.000245 ± 3.9e-05
A14C A33U C50U C70A | 3.25e-05 ± 1.4e-05 | – | – | – | 4.2e-05 ± 1.9e-05 | – | –
A14G A15G C50U C68U | 5.28e-05 ± 7.8e-06 | 4.92e-05 ± 1.8e-05 | – | – | 7.36e-05 ± 2e-05 | 4.76e-05 ± 1.2e-05 | –
A14G U47A | 0.00972 ± 0.0015 | 0.00943 ± 0.002 | 275 ± 78 | 0.0041 ± 0.0011 | 0.00942 ± 0.0021 | 0.00772 ± 0.0019 | 0.00113 ± 0.00022
A14C U69A | 0.000125 ± 1.5e-05 | 0.000115 ± 1.8e-05 | 380 ± 170 | 2.61e-05 ± 1.2e-05 | 9.86e-05 ± 1.9e-05 | 0.00011 ± 1.8e-05 | –
A14C U69C | 0.00147 ± 0.00041 | 0.000686 ± 0.00015 | 2100 ± 820 | 9.64e-05 ± 1.4e-05 | 0.000344 ± 6.1e-05 | 0.00131 ± 0.0002 | 5.59e-05 ± 1.2e-05
G13U U56C | 0.000107 ± 3.8e-05 | 7.63e-05 ± 1.5e-05 | – | – | 9.36e-05 ± 1.9e-05 | 0.000214 ± 4.4e-05 | < 1e-05
A14G A33G G37U | < 1e-05 | – | – | < 1e-05 | – | – | < 1e-05
G13U G32U | 0.00043 ± 2.8e-05 | 0.000182 ± 3.1e-05 | 3420 ± 370 | 2.69e-05 ± 1.1e-05 | 6.64e-05 ± 8.3e-06 | 0.000321 ± 3.4e-05 | –
G13A U69C | 0.000255 ± 8.6e-05 | 0.000132 ± 2.8e-05 | – | – | – | 0.000179 ± 4.5e-05 | –
G13A U69A | 4.03e-05 ± 1.6e-05 | 6.18e-05 ± 1.2e-05 | – | – | – | – | –
A14G U65A | 0.0124 ± 0.0022 | 0.00492 ± 0.00087 | 3350 ± 800 | 0.000424 ± 8.6e-05 | 0.00213 ± 0.00035 | 0.0094 ± 0.00098 | 0.000169 ± 1.9e-05
A14G U65G | 0.00446 ± 0.00028 | 0.00182 ± 0.00016 | 3780 ± 310 | 0.000193 ± 2.1e-05 | 0.000633 ± 5.3e-05 | 0.00321 ± 0.00033 | 4.37e-05 ± 6.7e-06
G13U C70U | 0.00213 ± 0.00039 | 0.000792 ± 0.00018 | 3200 ± 840 | 0.000126 ± 2.3e-05 | 0.000329 ± 5.2e-05 | 0.00172 ± 0.00026 | 2.45e-05 ± 1e-05
G13U C70A | 3.03e-05 ± 5.4e-06 | 3.54e-05 ± 9.8e-06 | – | – | 3.7e-05 ± 1.1e-05 | 2.01e-05 ± 1e-05 | –
